Measured values reported in US20230233676A1, “Use of Approved Anti-CD38 Antibody Drug Product in Combination with Pomalidomide and Dexamethasone to Treat Multiple Myeloma” (Janssen Biotech, Inc., priority 2022, published 2023).
Where two headings read alike, the source gives them in different places. Marks after values point to notes of the source that are not given here.

How the values were obtained:
[1] = human, in vivo
[2] = system: patients with relapsed or refractory multiple myeloma; test: COLUMBA randomized non-inferiority study, DARZALEX FASPRO monotherapy versus intravenous daratumumab;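 further: randomized arms stratified by body weight, myeloma type and count of earlier treatment lines, enrolled patients having a median of 4 previous lines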
Excerpt: The major efficacy outcome measures were ORR by the IMWG response criteria and maximum Ctrough at pre-dose Cycle 3 Day 1 [see Clinical Pharmacology (12.3)]. Randomization was stratified by body weight, myeloma type, and number of prior lines of therapy.
Patients had received a median of 4 prior lines of therapy. […] Forty-nine percent of patients were refractory both a PI and an immunomodulatory agent. Eighty-two percent of patients were refractory to their last line of prior systemic therapy.

[3] = target: T1, CD38 on red blood cells (RBCs) (Homo sapiens, UniProt P28907); test: Interference with serological testing (Indirect Antiglobulin Test)
T1 construct: endogenous in cells; host or cells: red blood cells (patient / reagent RBCs)
Excerpt: Since the Kell blood group system is also sensitive to DTT treatment, supply K-negative units after ruling out or identifying alloantibodies using DTT-treated RBCs.

[4] = Daratumumab pharmacokinetics in patients with light chain (AL) amyloidosis; format: in vivo, human
monkeys = test: Hyaluronidase given subcutaneously to monkeys (systemic exposure, reproductive tissues); format: in vivo
Protocol: No carcinogenicity, genotoxicity, or fertility studies were conducted for recombinant human hyaluronidase. […] As hyaluronidase is a recombinant form of the endogenous human hyaluronidase, no carcinogenicity, mutagenesis, or effects on fertility are expected.

[5] = system: pregnant mice and offspring; test: Hyaluronidase developmental toxicity in mice; format: in vivo
Excerpt: There were no effects on pre- and post-natal development through sexual maturity in offspring of mice treated daily from implantation through lactation with 990,000 U/kg hyaluronidase subcutaneously, which is 134 times higher than the human doses.

[6] = All Grades, worsening from baseline
[7] = monkeys given 22,000 U/kg/week subcutaneously for 39 weeks

**Q.** What does the source list for “Intravenous Daratumumab: daratumumab 16 mg/kg administered intravenously”?
**A.** Observed mean ± SD max Ctrough after 8th dose [1]: 522 ± 226^a,b μg/mL; Back pain ([2]; All Grades): 12%; Chills ([2]; All Grades): 12%; Cough ([2]; All Grades): 14%; Diarrhea ([2]; All Grades): 11%; Dyspnea ([2]; All Grades): 11%; Fatigue ([2]; All Grades): 16%; Infusion reactions ([2]; All Grades): 34%; Nausea ([2]; All Grades): 11%; Pneumonia ([2]; All Grades): 10%; Pyrexia ([2]; All Grades): 13%; Decreased hemoglobin [2, 6]: 39%; Decreased leukocytes [2, 6]: 57%; Decreased lymphocytes [2, 6]: 56%; Decreased neutrophils [2, 6]: 43%; Decreased platelets [2, 6]: 45%; Back pain ([2]; Grade ≥3): 3^# %; Chills ([2]; Grade ≥3): 1^# %; Cough ([2]; Grade ≥3): 0%; Diarrhea ([2]; Grade ≥3): 0.4^# %; Dyspnea ([2]; Grade ≥3): 1^# %; Fatigue ([2]; Grade ≥3): 2^# %; Infusion reactions ([2]; Grade ≥3): 5^# %; Nausea ([2]; Grade ≥3): 0.4^# %; Pneumonia ([2]; Grade ≥3): 6^@ %; Pyrexia ([2]; Grade ≥3): 1^# %; Decreased hemoglobin ([2]; Grades 3-4): 16%; Decreased leukocytes ([2]; Grades 3-4): 14%; Decreased lymphocytes ([2]; Grades 3-4): 36%; Decreased neutrophils ([2]; Grades 3-4): 11%; Decreased platelets ([2]; Grades 3-4): 14%; CR or better ([2]; in vivo): (2.7%); Median progression-free survival ([2]; in vivo): 6.1 months; Partial response (PR) ([2]; in vivo): (20%); Very good partial response (VGPR) ([2]; in vivo): (14%); Overall response (sCR + CR + VGPR + PR) ([2]; intent-to-treat population): (37%)

**Q.** For “Daratumumab: immunoglobulin G1 kappa (IgG1κ) human monoclonal antibody that binds to the CD38 antigen; heavy chain SEQ ID NO: 12, light chain SEQ ID NO: 13”, which “Indirect Antiglobulin Test (Indirect Coombs test)” value [3] is on record?
**A.** Its value is “positive”.

**Q.** And the “persistence of positive indirect antiglobulin test after the last administration” value [3]?
**A.** The value was “up to 6 months”.

**Q.** And the “estimated mean volume of distribution” value ([4]; CV 28%)?
**A.** The value was 10.8 L.

**Q.** And the “estimated mean linear clearance” value ([4]; CV 42%)?
**A.** The value was 210 mL/day.

**Q.** What about the “estimated mean elimination half-life associated with linear clearance” value ([4]; CV 74%) of the same molecule?
**A.** Its value is 28 days.

**Q.** What about the “estimated mean elimination half-life associated with linear clearance” value [1] of the same molecule?
**A.** The value was 20 days.

**Q.** And the “estimated mean linear clearance” value [1]?
**A.** The value was 119 mL/day.

**Q.** And the “estimated mean volume of distribution for the central compartment” value [1]?
**A.** Its value is 5.2 L.

**Q.** What about the “estimated mean volume of distribution, peripheral compartment” value [1] of the same molecule?
**A.** Its value is 3.8 L.

**Q.** What about the “pharmacokinetics in geriatric patients compared to younger adult patients” value [1] of the same molecule?
**A.** The value was “No clinically meaningful differences”.

B1: hyaluronidase: recombinant hyaluronidase rHuPH20 having the amino acid sequence of SEQ ID NO: 22 (protein, listed as Homo sapiens)
chain: LNFRAPPVIPNVPFLWAWNAPSEFCLGKFDEPLDMSLFSFIGSPRINATGQGVTIFYVDRLGYYPYIDSITGVTVNGGIPQKISLQDHLDKAKKDITFYMPVDNLGMAVIDWEEWRPTWARNWKPKDVYKNRSIELVQQQNVQLSLTEATEKAKQEFEKAGKDFLVETIKLGKLLRPNHLWGYYLFPDCYNHHYKKPGYNGSCFNVEIKRNDDLSWLWNESTALYPSIYLNTQQSPVAATLYVRNRVREAIRVSKIPDAKSPLPVFAYTRIVFTDQVLKFLSQDELVYTFGETVALGASGIVIWGTLSIMRSMKSCLLLDNYMETILNPYIINVTLAAKMCSQVLCQEQGVCIRKNWNSSDYLHLNPDNFAIQLEKGGKFTVRGKPTLEDLEQFSEKFYCSCYSTLSCKEKADVKDTDAVDVCIADGVCIDAFLKPPMETEEPQIFY
**Q.** Which results are given for B1?
**A.** systemic exposure of hyaluronidase (monkeys; monkeys given 22,000 U/kg subcutaneously): No systemic exposure; effects on reproductive tissues and function (monkeys; [7]): no effects; systemic exposure of hyaluronidase (monkeys; [7]): no systemic exposure; effects on post-natal development through sexual maturity in offspring ([5]; mice treated daily during lactation with 990,000 U/kg subcutaneously): no effects; effects on pre- and post-natal development through sexual maturity in offspring ([5]; mice treated daily from implantation through lactation with 990,000 U/kg subcutaneously): no effects; effects on embryo-fetal development ([5]; pregnant mice given 330,000 U/kg subcutaneously daily during organogenesis): no effects
